# ± gives the standard error. This sample holds only a part of the variants without activity.
# B1: glmS ribozyme (parent)
# chain: AUAAAAGCGCCAGAACUACAGAAAUGUAGUUGACGAGGAGGAGGUUUAUCGAAUUUUCGGCGGAUGCCUCCAAA
# Variants of: B1
# Assay: self-cleavage kobs at 640 uM GlcN6P; higher = faster cleavage; RNA array
# Conditions: with glucosamine-6-phosphate
# Summary of the method: (§1)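 Ribozyme variants carrying barcodes were transcribed in situ on sequenced MiSeq chips by E. coli RNA polymerase and tracked at 37 °C with a hybridised Cy3 probe. They were exposed to 40 μM to 10 mM glucosamine-6-phosphate in HEPES/KCl/Mg(OAc)2 buffer. kobs came from exponential decay fits of normalised per-tile medians, and kcat and KM from weighted Michaelis–Menten fits.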
row,Variant,self-cleavage kobs at 640 uM GlcN6P [s⁻¹]
1,AUAAAAGCUCCAGAACUACAGAAAUGUAGUUGACGAGGAGGAGGUUUAUCGAAUUGUCGGCGGACGGCUCCAAA,< 1e-05
2,AUAAAAGCGGCUGAACUACAGAAAUGUAGUUGACGAGGAGGAGGUAUAUCGAAUUUUCGGCGGAUGCCUCCAAA,< 1e-05
3,AUAAAAGCGACAGAACUACAGAAAUGUAGUUGACGAGGAGGAGGUUUAUCGAAUUUUCGGGGGGUGCGUCCAAA,9.09e-05 ± 4.3e-05
4,AUAAAAGCUCCAGAACUACAGAAAUGUAGUUGACGAGGAGGGGGUUUAUCGAAUUUUCGGCGGAUGCCUCCAAA,< 1e-05
5,AUAAAAGCUCCAGAACUACAGAAAUGUAGUUGACGAGGAGGAGGUUUAUCGAAUCUUCGGCUGAUGCCUCCAAA,< 1e-05
6,AUAAAAGCCCCAGAACUACAGAAAUGUAGUUGACGAGGAGGAGGAUUAUCGAAUUUUCGGCGGAUGCAUCCAAA,< 1e-05
7,AUAAAAGCUCCAGACCUACAGAAAUGUAGUUGACGAGGAGGAGGUUUAUCGAAUUUUCGGCGGAUGCCUCCAAA,< 1e-05
8,AUAAAAGCUCCAGACCUACAGAAAUGUAGUUGACGAGGAGGAGGUUUAUCGAAUUUUCGGCGGAUGUCUCCAAA,< 1e-05
9,AUAAAAGCUCCAGAACUACAGAAAUGUAGUUGACGAGGAGGAGGUUUAUCGAAUUUUCGACGGAUUCCUCCAAA,< 1e-05
10,AUAAAAGCGACAGAAUUACAGAAAUGUAGUUGACGAGGAGGAGGUUUAUCGAAUUUUCGGCGGAUGGCUCCAAA,0.000345 ± 0.00015
11,AUAAAAGCUCCAGAACUACAGAAAUGUAGUUGACGAGGAGGAGGUGUAUCGAAUUUUGGGCGGAUGCCUCCAAA,< 1e-05
12,AUAAAAGCUCCAGAACUACAGAAAUGUAGUAGACGAGGAGGAGGUUUAUCGAAUUUUCGGCGGAUGCCUCCAAA,< 1e-05
13,AUAAAAGCUCCAGAAAUACAGAAAUGUAGUUGACGAGGAGGAGGUUUAUCGAAUUUUCUUCGGAUGCCUCCAAA,< 1e-05
14,AUAAAAGCUCGAGAACUACAGAAAUGUAGUUGACGAGGAGUAGGUUUAUCGAAUUUUCGGCGGAUGCCUCCAAA,< 1e-05
15,AUAAAAGCUCCGGCACUACAGAAAUGUAGUUGACGAGGAGGAGGUUUAUCGACUUUUCGGCGGAUGCCUCCAAA,< 1e-05
16,AUAAAAGCGACAGAAAUACAGAAAUGUAGUUGACGAGGAGGAGGUUUAUCUAAUUUUCGGCGGCUGCCUCCAAA,< 1e-05
17,AUAAAAGCUCCAGAACUACAGAAAUGUAGUUGACGAGGAAGAGGUUUAUCGAAUUUUCGGGGGAUGCCUCCAAA,< 1e-05
18,AUAAAAGCCCCAGAACUACAGAAAUGUAGUCGACGAGGAGGAGGUUUAUCGAAUUUUCGGCGGAUGUCUCCAAA,< 1e-05
19,AUAAAAGCUUCAGAACUACAGAAAUGUAGUUGAGGAGGAGGAGGUUUAUCGAUUUUUCGGCGCAAGCCUCCAAA,< 1e-05
20,AUAAAAGCGACCGAACUACAGAAAUGUAGUUGACGAGGAGGAGGUUUAUCGAAUUUUCGGCGGAUUCCUCCAAA,< 1e-05
21,AUAAAAGCUGCAGAGCUACAGAAAUGUAGUUGACGAGUGGGAGGUUUAUCGUAUUUUCGGCGGAUGCCUCCAAA,< 1e-05
22,AUAAAAGCCCCAGAACUACAGAAAUGUAGUUGACGAGGAGGAGGUUUAUCGAAUUUUCGGCGGACGCUUCCAAA,< 1e-05
23,AUAAAAGCUCUAGAACUACAGAAAUGUAGGUGACGAGGAGGAGGUUUAUCGAAUUUUCGGCGGAUGCCUCCAAA,< 1e-05
24,AUAAAAGCUCCAGAACUACAGAAAUGUAGUUGACGAGGAGGUGGUUUCUGGAAUUUUCGGCGCAUGUCUCCAAA,< 1e-05
25,AUAAAAGCCCCAGAACUACAGAAAUGUAGUUGACGAGGAGGAGGUUUAUCGAAUUUUCGGCGGAAGCGUCCAAA,0.000522 ± 0.00017

# Variants of: B1
# Assay: self-cleavage kobs at 2500 uM GlcN6P; higher = faster cleavage; RNA array
# Conditions: with glucosamine-6-phosphate
# Summary of the method: as §1
row,Variant,self-cleavage kobs at 2500 uM GlcN6P [s⁻¹]
1,AUAAAAGCCCCAGAACUACAGAAAUGUAGUUGACGAGGAGGAGGAUUAUCGAAUUUUCGGCGGAUGCAUCCAAA,< 1e-05
2,AUAAAAGCUCCAGAACUACAGAAAUGUAGUUGACGAGGAGGAGGUGUAUCGAAUUUUGGGCGGAUGCCUCCAAA,< 1e-05
3,AUAAAAGCUCCAGAACUACAGAAAUGUAGUAGACGAGGAGGAGGUUUAUCGAAUUUUCGGCGGAUGCCUCCAAA,< 1e-05
4,AUAAAAGCUCCAGAAAUACAGAAAUGUAGUUGACGAGGAGGAGGUUUAUCGAAUUUUCUUCGGAUGCCUCCAAA,< 1e-05
5,AUAAAAGCUCCGGCACUACAGAAAUGUAGUUGACGAGGAGGAGGUUUAUCGACUUUUCGGCGGAUGCCUCCAAA,< 1e-05
6,AUAAAAGCCCCAGAACUACAGAAAUGUAGUCGACGAGGAGGAGGUUUAUCGAAUUUUCGGCGGAUGUCUCCAAA,< 1e-05
7,AUAAAAGCGACCGAACUACAGAAAUGUAGUUGACGAGGAGGAGGUUUAUCGAAUUUUCGGCGGAUUCCUCCAAA,< 1e-05
8,AUAAAAGCUGCAGAGCUACAGAAAUGUAGUUGACGAGUGGGAGGUUUAUCGUAUUUUCGGCGGAUGCCUCCAAA,< 1e-05

# Variants of: B1
# Assay: self-cleavage kobs at 10000 uM GlcN6P; higher = faster cleavage; RNA array
# Conditions: with glucosamine-6-phosphate
# Summary of the method: as §1
row,Variant,self-cleavage kobs at 10000 uM GlcN6P [s⁻¹]
1,AUAAAAGCUCCAGACCUACAGAAAUGUAGUUGACGAGGAGGAGGUUUAUCGAAUUUUCGGCGGAUGCCUCCAAA,< 1e-05
2,AUAAAAGCUCCAGAACUACAGAAAUGUAGUAGACGAGGAGGAGGUUUAUCGAAUUUUCGGCGGAUGCCUCCAAA,< 1e-05
3,AUAAAAGCUGCAGAGCUACAGAAAUGUAGUUGACGAGUGGGAGGUUUAUCGUAUUUUCGGCGGAUGCCUCCAAA,< 1e-05
4,AUAAAAGCCCCAGAACUACAGAAAUGUAGUUGACGAGGAGGAGGUUUAUCGAAUUUUCGGCGGAAGCGUCCAAA,6.3e-05 ± 2.2e-05

# Source: the supplement of paper PMC7125110
